We go through one substance from US20140287507A1.

This assay has as its target integrin β1 (receptor subunit on the seeded cells, blocked with anti-β1 monoclonal antibody) (hamster (baby hamster kidney cells)). The assay is described as follows: cell-based or functional assay.

As to “TMV-RGD1 (Tobacco mosaic virus particle whose coat protein carries the insert GRGDSPG extended after T159) (from UniProt P69687 2-159)”, the cell attachment on virus coated plate after blocking the cells with integrin specific monoclonal antibody (% drop in attachment) was found to be 25.
